Measured values published in the DeepSol protein solubility set.

Assay: soluble on expression in E. coli; label from the status in PepcDB or PDB records

Row | Sequence | soluble on expression in E. coli
1 | MPCVQAQYSPSPPGSTYATQTYGSEYTTEIMNPDYAKLTMDLGSTGIMATATTSLPSFSTFMEGYPSSCELKPSCLYQMPPSGPRPLIKMEEGREHGYHHHHHHHHHHHHHHQQQQPSIPPPSGPEDEVLPSTSMYFKQSPPSTPTTPGFPPQAGALWDDELPSAPGCIAPGPLLDPQMKAVPPMAAAARFPIFFKPSPPHPPAPSPAGGHHLGYDPTAAAALSLPLGAAAAAGSQAAALEGHPYGLPLAKRTATLTFPPLGLTASPTASSLLGESPSLPSPPNRSSSSGEGTCAVCGDNAACQHYGVRTCEGCKGFFKRTVQKNAKYVCLANKNCPVDKRRRNRCQYCRFQKCLSVGMVKEVVRTDSLKGRRGRLPSKPKSPLQQEPSQPSPPSPPICMMNALVRALTDATPRDLDYSRYCPTDQATAGTDAEHVQQFYNLLTASIDVSRSWAEKIPGFTDLPKEDQTLLIESAFLELFVLRLSIRSNTAEDKFVFCNGLVLHRLQCLRGFGEWLDSIKDFSLNLQSLNLDIQALACLSALSMITERHGLKEPKRVEELCNKITSSLKDHQRKGQALEPSEPKVLRALVELRKICTQGLQRIFYLKLEDLVSPPSVIDKLFLDTLPF | soluble
2 | MLNEGAKNTEKQKVMEIITVAEPMSESELESIRNFLFRIIRREFGFGYIPEYHRDIINLEEYYLKPPRNIFLFASQGGRVIGTLGLRAYDREFEGLNYDPETTASLWRVFVDEDHRRMGVASRLVEIAEKEAASLGYQRIYLHTHKYVGGALEFWLSRGYRVTVDTGNELGTVHMEKTLSCNSNAITRIPEKTSELSHSLPRTQKV | soluble
3 | MKTIRRYDVNEDRGHTGLVEAGDFYYLNYCVGNVGQDIESQINGAFDEMERRLALVGLTLDAVVQMDCLFRDVWNIPVMEKMIKERFNGRYPARKSIQTEFAHHGGPQGLLFQVDGVAYSKHISMT | soluble
4 | MRRQRRSITDIICENCNYLPTKRSRNKRKPIPKESDVKTFNYTAHLWDIRWLRERARKTR | not soluble
5 | MKNKLPPFIEIYRALIATPSISATEEALDQSNADLITLLADWFKDLGFNVEVQPVPGTRNKFNMLASTGQGAGGLLLAGHTDTVPFDDGRWTRDPFTLTEHDGKLYGLGTADMKGFFAFILDALRDVDVTKLKKPLYILATADEETSMAGARYFAETTALRPDCAIIGEPTSLQPVRAHKGHISNAIRIQGQSGHSSDPARGVNAIELMHDAIGHILQLRDNLKERYHYEAFTVPYPTLNLGHIHGGDASNRICAWCELHMDIRPLPGMTLNELNGLLNDALAPVSERWPGRLTVDELHPPIPGYECPPNHQLVEVVEKLLGAKTEVVNYCTEAPFIQTLCPTLVLGPGSINQAHQPDEYLETRFIKPTRELITQVIHHFCWH | soluble
6 | MSLEIRRADKDDLDDFVRVYVESYRGLEDYAYTRKRDVKNYFKWLLSRDKDGVMVAEIDGEAVGFVACDTNWFSIFERKKVGEIHELFVLPEFRGEGIGAKLMEKALEYALERNRKVAELWVGRTNYRARRFYASQDLRRPESGGSGSEEGHHHHHH | not soluble
7 | MQTFGSRGEKRTFEMLTNEVEYQHYRFSFANNPATAAGIFQLAEIELTVVADAPLVDFASNISRAEIGENVQFWDRSLANPTGWQWTFEDGEPATSTNRNPAVTFTSLGAKSVTLVASNDKGSNEKVQEQVVHIWDSQNPWAGYVKPTVTLVAHKPEHEGQIAFSRVMPDIEAVIHDISLQIVKVLYKDVAEAPLFKTVTFETDEYDFPAAKSGTDEDMILMMDVAHLANKAAEGDDALRDEVIGMLWHELTHGYNNSPNSGEYATGDEYHSYLESLANYMRIKAGFHESRRVGIKWVDNWNVDAYEQTSFFLEWVANSHRSVDFIYLFNKAAGDLKEWSFEAAFKSIFGEDKGVSIFWQEYHDAQGIEPPYPTPVDGYRNFAVDEGVSISTNATTVIIPDWDAYEGEDKLIDNNVTKKFNAFIEGTWWLEEHASHLFPINDITNVEVTFELPDAIVLHKYSVTTGNDNPQRDPTLWTISGSVDGEVWTQLDSDNYPSDPERLITFHYDIDDAVTAYKYYQFVFENTQPAGDSIGGDNGRLVQIGEIALLTEELEHHHHHH | soluble
8 | PPIILQGPANQTLAVDGTALLKCKATGDPLPVISWLKEGFTFPGRDPRATIQEQGTLQIKNLRISDTGTYTCVATSSSGETSWSAVLDVTESG | soluble
9 | MHSLTSRAPAEPDERLQALKRLIGKVTPQIGLNDVCKTSIPDLTFYRMDKLATPTYCIYEPCVAIILQGAKEITFGEQACEFAQGSFFVTSVDIPTLARVTAASEQTPYLSIVLKLDLSMLNDVIQTQAPLKQEATPEARGFASGMASSEMLDAFARLSALTGQPLEAGLMSDLIKREICVRLLLSCAGQWLRSVTRDGYRDKGIVRAIEWLKLHYDEPLHVAQLAQLSGMASSTLHHNFRKLTGTSPVQYQKSLRLQAARSLMLTERVDVNTAALRVGYESVAQFSREYARRFGAPPSRDIKYAREAGGRRD | not soluble
10 | ALPTIHVVTPTYSRPVQKAELTRMANTLLHVPNLHWLVVEDAPRRTPLTARLLRDTGLNYTHLHVETPRNYKLRGDARDPRIPRGTMQRNLALRWLRETFPRNSSQPGVVYFADDDNTYSLELFEEMRSTRRVSVWPVAFVGGLRYEAPRVNGAGKVVRWKTVFDPHRPFAIDMAGFAVNLRLILQRSQAYFKLRGVKGGYQESSLLRELVTLNDLEPKAANCTKILVWHTRTEKPVLVNEGKKGFTDPSVEI | soluble
11 | MAHHHHHHMFTLLCCADLAGNKVNLEIALDTFPATLRGLESDIARIFNREVEKSGAVEHNANVAEPFQVMSVFVYDDVLLRWTKLESLTQLHEYDQLYVFQPQTQWHVDVQKELPPPRPPARSRASSITGASGTLASLQVNGCASSPWPRSGISTRISAAGDIDTSHSPVPSRSPARAQLEEHRREEERLAHRLSTLRRVREHLEREAQREEEEERRRRSLETYRLLKCKEEEIWSQRDALARAEEEFRQFLAEKQRLMGQSPSP | not soluble
12 | VVVGAERTELLLPLLRDKRVALVANATSVVGTEREHLLDNLLRQGVNVVKILGPEHGFRGDADAGATVKDERDVRTGIPIVSLYGKNKKPTPRMLADVDVLLFDMQDVGTRFFTYISTLHYVMEACAEEQKKLIVTDRPNPNDYVDGPILQDDCRSFVGVDPLPILHGLTIGELANMINGEGWLGKKEMKCDLTVVPMSGWKHGQEYALPVKPSPNLPTANAIAWYPSLCLFEATIMSVGRGTDFPFEVLGYPKKVFGSFVFVPRPIRGMDSNPLYKGRHCYGVDLRGEKAPRGLSLQLLIRYYQTARREGIKFVNRKQMFNLLAGTKELAQQIEKGRTEEQIRASWQSDLDKYHKLRKKYLLYPTPTE | soluble
13 | PFSWMRYIVISRKDLEEDGREILIHEMAHIQNRHSIDLLVADICIFFQWFNPGIWLLKQELQNIHEYEADETVINEGIDAKDYQLLLI | not soluble
14 | DQESCKGRCTEGFNVDKKCQCDELCSYYQSCCTDYTAECKPQVTRGDVFTM | soluble
15 | SLVTVSDVKQYHFCKAIPWINYVMGYREPSTFSMEEGKKISYEEVVKSLNLTTPVKYEVCLSYNGLSGCIDILAGDRKYTVVEVKAFKRGNFSHFRYQLLAYAYLVRKRLGIVERAILVMEGKKVLEIEPTEEHYRYIENVVKKIEEIVNSEKLPAVNVEKCDFCQYRRICPVSVWS | not soluble
16 | ADTRIGVTIYKYDDNFMSVVRKAIEKDGKSAPDVQLLMNDSQNDQSKQNDQIDVLLAKGVKALAINLVDPAAAGTVIEKARGQNVPVVFFNKEPSRKALDSYDKAYYVGTDSKESGVIQGDLIAKHWQANQGWDLNKDGKIQYVLLKGEPGHPDAEARTTYVVKELNDKGIQTEQLALDTAMWDTAQAKDKMDAWLSGPNANKIEVVIANNDAMAMGAVEALKAHNKSSIPVFGVDALPEALALVKSGAMAGTVLNDANNQAKATFDLAKNLAEGKGAADGTSWKIENKIVRVPYVGVDKDNLSEFTQK | soluble
17 | MSLGSGHIRAAEALQKFVVQKYPKSKTLIVDTFKYINPLIHTVVVDGYLNIVKYVPEIYGGLYRMSEHIKNIDRMSRGFSNLLTPKIHRLIQSFKPSIIVCTHPFPLQMIAHLKKHYNLDVPSIAIVTDFVNHPFWFQNNIEAYIVAHDYIKRDMIECGISEDRIFTYGLPVAPEFLKLEHHHHHH | not soluble
18 | MAHHHHHHMKQRTNVALKRWYASERTKKANPLILISNSHNIHFNLSLENFLLNNYSDLLKHLNGNSIERYDDPVLFLWRNNRSIIIGKNQNIWSECNLENIKEDNVLVARRFTGGGAVYHDLQNLCFTFLNNSLSTDDNFSIILKTLKRHFAIEAKRQGRNDITVNDRKCSGSAFKKMKNGFLHHGTIMVNLEKDVLSRYLTPDKIKYTKHGVSSVNARTINLKEINPKITCQDLCYALIKEFQAFYKNGVPNEGGEASCSATLKVEDYTGGEKIANPPEQVSSNRNANLSEGEKSVANLIDHSSPILKHFNIHYVDTNESITKNPEFLKYLNLLKDWDWCYGKSPKFQNRLCKQFPFGKFEVFFNVSDGMIKDGNVFSDCLDINLVEQLKFIFNNDVRYSKDSVASFLRGLQVENEGSLREVTDWILQEL | not soluble
19 | MSLDLKLGGQVILVVGGAGTIGSEVVKLLTEEGATAVAASRSTPLSIDASDEASVRAGIDQVIAEHGRLDGLVVSSAPAAQTLSAETADDPDTVLAAIEGKAITFMKAATVALEKMREAGHGRIVALSGMNSYKTLSTTASARNAALNVVVKNLADRHAGTGITVNAISPGFVVAEPDAEVNRANGDTTVEEVAEAIAFLLSPRTASISGEIISVGHKAKGEGHHHHHH | not soluble
20 | MTNGQSPAGGVQSVERAFDILEIMASAGGSIGVSELADLAGLPLPTIHRLIRTLMNRGYVRQLPTRRYALGPKLIRLGESATQLIGAWSRPHLSELVRGTGETANMAVLDGTMAVYVAQVPSEHAMRMFTEVGRRVYPHCTGVGKAILMQLSNDAVRSLVGRTGMTTYTENSLTDPDMLIADLELSRNRGFAIDEGEQEIGVRCFSVPVPNAPTPTAISVSGPAARVTLESADHIVPLLKRVAKELGTEFDKNAAL | not soluble
21 | MSEQLNADRPKTRRKEPAGRGSASEQKILAAAKELFLADRYDGVNLERIAARAGVSRQTVYNRFGSKETVFREMVRHHWSAFAGPGRDIAECGPDASAEEVLRGFAQSLQRFATETDQIRFAQLVVTESARLPWIADEFYRLGKGPVVVTFADCLDSLVRRGLLRCPDTHLAARQFTGLVQEFLVWPRVMAFEEEVAGQAPPEVVIEEAVLTFLARYAPAADGPGQSV | not soluble
22 | IRHEITSRTSVSVLVNRCNWFCTSPKCSGLTVMGCLCVAMSVAKKDKPTMSVTALINWARPLPPGQQQQPMTPTSPGNMLQPMATPSNLPTVDCSLDIQWLNLEGGFMSPMSPPEMKPDTAMLDGLRDDSTPPPAFKNYPPNHPLSGSKHLCSICGDRASGKHYGVYSCEGCKGFFKRTVRKDLTYACREERNCIIDKRQRNRCQYCRYQKCLACGMKREAVQEERQRAARGTEDAHPSSSVQVQELSIERLLEMESLVADPSEEFQFLRVGPDSNVPPKFRAPVSSLCQIGNKQIAALVVWARDIPHFSQLEMEDQILLIKGSWNELLLFAIAWRSMEFLTEERDGVDGTGNRTTSPPQLMCLMPGMTLHRNSALQAGVGQIFDRVLSELSLKMRTLRVDQAEYVALKAIILLNPDVKGLKNRQEVEVLREKMFLCLDEYCRRSRSSEEGRFAALLLRLPALRSISLKSFEHLFFFHLVADTSIAGYIRDALRNHAPPIDTNMM | soluble
23 | MSWMQNLKNYQHLRDPSEYMSQVYGDPLAYLQETTKFVTEREYYEDFGYGECFNSTESEVQCELITGEEDPKLLPYDKRLAWHFKEFCYKTSAHGIPMIGEAPLEHHHHHH | soluble
24 | PREEVARIHASSGTTGKPTVVGYTKNDLKVFAEVVARSLAAAGARPGMMLHNAYGYGLFTGGLGLHGGAEALGMTVVPVSGGMTERQVMLIQDFRPEVISCTPSYAQTLAEEFRKRGVSPEELSLEYAVLGAEPWTEAIRKQVDEGLGVKSTNIYGLSEIIGPGVSNECVEERQGSHI | not soluble
